Test: yeast display, Sf9 membrane polyspecificity reagent, FACS + sequencing; frameworks hold sequencing errors
Procedure, shortened: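 After 36–48 hours of galactose induction, yeast (Saccharomyces cerevisiae BJ5465) displaying a synthetic nanobody library were stained at 4 °C for 1 hour with 10% biotinylated, detergent-solubilized Sf9 membrane reagent. Streptavidin microbeads enriched the stained cells before FACS sorting into low and high (top ~1%) gates on anti-HA and streptavidin fluorescence. Each clone's polyreactivity label reflects its gate of origin.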

Sequence	polyreactivity (PSR sort gate)
QVQLVESGGGLVQAGGSLRLSCAASGRTFGFNAMGWYRQAPGKERELVATITTGGSTNYADSVKGRFTISRDNAKNTVYLQMNSLKPEDTAVYYCATDGWFRSGYKYFTHFYFWGQGTQVTVSS	high polyreactivity
QVQLVESGGGLVQAGGSLRLSCAASAFILYRYAMGWYRQAPGKERELVAAISRTGGSTYYADSVKGRFTISRDNAKNTVYLQMNSLKPEDTAVYYCNARSSYGLSYRQYGYWGQGTQVTVSS	high polyreactivity
QVQLVESGGGLVQAGGSLRLSCAASGSTIKSNVLGWYRQAPGKERELVAAISSGDSTYYADSVKGRFTISRDNGKNTVYFQLNSLKPVDTAVFYCAARLGLQLVDTPDNDYWGQGTEVTVSS	low polyreactivity
QVQLVESGGGLVQAGGSLRLSCAASGFIFQTNHMGWYRQAPGKERELVAAISSGDSTYYADSVKGRFTISRDNAKNTVYLQMNSLIPEDTAVYYCAADVLGTTTVGGFNYWGQGTQVTVSS	low polyreactivity
QVQLVESVGGLVQAGGSLRLSCAASGRTFVVYAMGWYRQEPGKERELVAAIRVSDGSTYYADSEKGRFTISREISKNTVYLQMNSLNPEDTAVYYCNAESFRGFYYWGQGTQVTVSS	high polyreactivity
QVQLVESGGGLVQAGGSLRLSCAASGFIFYLYAMGWYRQAPGKERELVAAISWSGGITYYADSVKGRFTISRDNAKNTVYLQMNSLKPEDTAVYYCNAVGASASDGDYWGQGTQVTVSS	high polyreactivity
QVQLVESGGGLVQAGGSLRLSCAASGSTFSDNAMGWYRQAPGKERELVAANTSGGSTYYADSVKGRFTISRDNAKNTVYLQMNSLKPEDTAVYYCAADYWGQGTQVTVSS	low polyreactivity
QVQLQESRGGLVQAGGSLRLSCAASGSITHYIFMGWYRQAPGKEREFVAGIGYGGTTNYADSVKGRFTISRDNAKNTVFLQMNSLKPEDTAMYYCAAREATEFYLYYWGQGTQVTVSS	low polyreactivity
QVQLVESGGGLVQAGGSLRLSCAASGSTFRGYALGWYRQAPGKERELVATISGSDGTTYYADSVKGRFTISRDNAKNTVYLQMNSLKPEDTAVYYCAAGETFEMYYWGQGTQVTVSS	low polyreactivity
QVQLVESGGGLVQAGGSLRLSCAASGSISFYAMGWYRQAPGKERELVAAITTSGGRTYYADSVKGRFTISRDNAKNTVYLQMNSLKPEDTAVYYCNVASKGRYARYAAEYGSWGQGTQVTVSS	high polyreactivity
QVQLVESGGGLVQAGGSLRLSCAASGFIFYLYAMGWYRQAPGKERELVAAISSSGGGTYYADSVKGRFTISRDNAKNTVYLQMNSLKPEDTAVYYCNVPLSYRSEYDYWGQGTQVTVSS	high polyreactivity
QVQLVESGGGLVQAGGSLRLSCAASGFTFYPYTMGWYRQAPGKEREFVAAISWNCGSTYYADSVKGRFTISCDNAKNTVYLQMNSLKPEDTAVYYCAKRSYRSSARELDYWGQGTQVTVSS	low polyreactivity
QVQLVESGGCLVQAGGSLRLSCAASGSTFTSNAMGWYRQAAGKEWQFVAAISFGGGITYDADSVKGRFTISRDNAKNTVSLQMNSLKPEDTAVYYCAADGEYPHSEDFEYWGQGTQGTVSS	low polyreactivity
QVQLVESGGGLVQAGGSLRLSCAASGIIFTRNAKGWSRQAPGKERELVAAISRSGGRTSYADSVKGRFTISRDNAKNTVYLHMNSLKPEDTEVYYCYARTTSGWGQGTQVTVSS	high polyreactivity
QVQLVESGGGLVQAGGSLRLSCAASGRIISYYAMRWYRQAPGKERELVAAITSAGGTNYADSVKARFTISRDNAKNTVYLQMNSLKPEDTAVYYCAADLYDWPLAWWEYFYWGQGTQVTVSS	low polyreactivity
QVQLVESGGGLVQAGGSLRLSCAASGFTFNRYAMAWDRQAPGKERELVATITSGGNTYYADSVKGRFTIARDNAKNTVYLQMNSLKPEDTAVYYCNQLGWYSVYRRDYWGQGTQVTVSS	high polyreactivity
QVQHVESVGGLDQAGVSLRLSSSASGITFSYNAMGCSRQAPGKESEFVAAISSNSDSTYYADSVKGRFTISRDNAKNTVYLQMNSLKPEDTAVYYCAAETPDAPDYSGFYYWGQGTQVTVSS	low polyreactivity
QVQLVESGGGLVQAGGSLRLSCAASGRILYYYAMGWYRQAPGKERELVAAITWGGGSTYYADSVKGRFTISRDNAKNTVYLQMNSLKPEDTAVYYCNRTFRSRLPTSRGYDYWGQGTQVTVSS	low polyreactivity
QVQLVESGGGLVQAGGSLRLSCAASGLTFEHNAMGWYRQAPGKETEFVAVISWRGTSTYYADSVKGRFTISRDNAKNTVYLQMNSLKPEDTAVYYCATRYYGDDGYRYDHWGQGTQVTVSS	high polyreactivity
QVQLVESGGGLVQAGGSLRLSCDASGSPFEWYGMGWYRQAPGKERELVDAITSGGSTNYADSVKGRFTISRDNAKNTVYLQMNCLKPEVPAVYYCNAEYKPYHYYKAWVYTYDYGYWGQGTQVTVSS	low polyreactivity
QVQLVESGGGLVQAGGSLRLSCAASGSTFPVYAMGWYRQAPGKERELVAAISWRGDSTYYADSVKGRFTISRDNAKNTVYLQMNSLKPEDTAVYYCAASTGSVVRRYYYWGQGTQVTVSS	high polyreactivity
QVQLVESGGGLVQAGGSLRLSCAASGSTFSRYPMGWSRQAPGKERELVAAISWGGNTYYADSVKGRFTISRDNAKNTVYLQMNSLQPEDTAVYYCNRYSKLYNTMDYWGQGTQVTVSS	high polyreactivity

Sequence	polyreactivity (PSR sort gate)
QVQLVESGGGLVQAGGSLRLSCAASGSIFRYYAMGWYRQAPGKEREFVAAISRSGGSTYYADSVKGRFTISRDNAKNTVYLQMNSLKPEDTAVYYCAASYYRYFVSLGYDYWGQGTQVTVSS	high polyreactivity
QVQLVDSVGVLVQAGGSLRLSCAASGSIFYRNVMGWYRPAPGKERELVATISRGGTTNYADSVKGRFTISRDNAKNTVYLQMNSLKPEDTAVFYCAAPIGDVYVGIGYDSWGQGTQVTVSS	low polyreactivity
QVQLVESGGGLVQAGGSLRLICAASGTTFGRNAMGWYRQAPGKERELVDAIDSGASTYYADSVKGRFTISRDNAKNTVYLQMNSLKPEDTAVYYCGADVVYDYGGMDYWGQGTQVTVSS	low polyreactivity
QVQLVESAGGLVQAGGSLSLSCAASGYTYWYAMGWYRQAPGKERELVAAIDSGVTRTYYADSVKGRFTISRDNAKNTVYLQMNSLKPEDTAVYYCAAGLSTDYGYWGQGTQVTVSS	low polyreactivity
QVQIVESGGGLVQAGGSLRLSCADSGGTFRRYAMGWYRQAPGKEREFVARIYDGGTTYYADSVKGRFTISRDNAKNTVYLQMNSLKPEDTAVYYCAAYPYSRYYYYSNYYWGQGTQVTVSS	high polyreactivity
QVQLVESGGGLVQAGGSLRLSCAASGSIFSSNAMGWYRQAPGKERELVAAITSGGSTTYADSVKGRFPISRDNAKNTVYFQMNSLKPEDTAVYYCAADPVYRYYHGWTYLDYDYWGQGTQVTVSS	low polyreactivity
QVHHLESRGGLVQEGGSLPISCGASGSTFLRYALGWYRQAPGKVRELVADITTSGGITYYADSVKGRFTISRDNAKYTVYLQLNSLKPEDTAVYDCDYWGQGTQVTVSS	low polyreactivity
QVQLVESGGGLVQAGGSLRLSCAASGRTFYYNTMGWYSQAPGKERELVATISRIGGSTYYADSVKGRFTISRDNAKNTVYLQMNSLKPEDTAVYYCAAYVAAYPTGYDYWGQGTQVTVSS	high polyreactivity
QVHLVESGGGLVQEGGSLRISCAASGGTFHSNDMGWYRQAPGKESELVASINWSGGSTYYSDSVKGRFTISRDNAKNTVYLQMNRLKPEDNAVYYCAARESYPGYGYDHWGQGTQVTVSS	low polyreactivity
QVQLVESGGGLVQAGGSLRLSCAASGSIFYRNALGWYRQAPGKERELVAAISSDGSTNYADSVKGRFTISRDNAKNTVYLQLNSLKPEDTAVYYCAAPWTQILDYWGQGTQVTVSS	low polyreactivity
QVQLVESGGGLVQAGGSLRLSCAASGLIFNRYTMGWYRQAPGKERELVAAINRSGGNTYYADSVKGRFTISRDNAKNTVYLQMNSLKPEDTAVYYCNADYFSRTGYKYDYWGQGTQVTVSS	high polyreactivity
QVQLVESGGGLVQAGGSLRLSCAASGRIFTPYVMGWYRQAPGKERELVARISWTGSSTYYADSVKGRFTISRDNAKNTVYLQMNSLKPEDTAVYYCAKRLTRFYTRLEYWGQGTQVTVSS	low polyreactivity
QVQLVESGGGLVKAGGSLRLSCAASGRIFNWYAMGWYRQAPGKEREFVAAITFSGGSTYYADSVKGRFTISRDNAKNTVYLQMNSLKPEDTAVYYCAAEIYFFVSYDYWGQGTQVTVSS	low polyreactivity
QVQLVESGGGLVQAGGSLRLSCAASGYIFVHYAMGWYRQEPGKERELVAAISKSGSSTYYADSVKGRFTISRDNAKNTVYLQMHSLKPEDTAVYYCAGVYPYVSGYTYGYWGQGTQVTVSS	low polyreactivity
QVQLVESGGGLVQAGGSLRLSCAASGFTFVPHTMGWYRQAPGKERELVAGINYGVGSTYYADSVKGRFTISRDNAMNTVYLQMNSLKPEDTAVYYCAADIVYLYGLLYYWGQGTQVTVSS	low polyreactivity
QVQLVESGGGLVQAGGSLRLSCAASGFIFARYAMGWYREAPGKERELLAAITARGGSTYYADSVKGRFTISRDNAKNTVYLQMNSLKPEDTAVYYCADVSGYSTGGYRNRYNYWGQGTHVTVSS	high polyreactivity
QVQLVESGGGLVQAGGSLRLSCAASGSIFADYTMGWYRQAPGKERELVAAITSGGSTYYADSVKGRFTISRDNAKNTVYLQMNSLKPEDTAVYYCAAYYGGRGYWGQGTQVTVSS	low polyreactivity
QVQLVESGGGLVQAGGSLRLSCAASGFTFHYNAMGWYRQAPGKERELVAAISRSGGITNYADSVKGRFTISRDNAKNTVYLQMNSLKPEDTAVYYCAAYLVVRIRYTQRYDYWGQGTQVTVSS	low polyreactivity
QDQHVESGGGLVQAGGSLRLSCAASGFTFDFYAMGWYRQAPGKERELVAAISKNDGTTYYADSVKGRFTISRDNAKNTVYLQMNSLKPEDTGVYYCAAESGYPVYTYVSSGDYWGQGTQVTVSS	low polyreactivity
QVQLVESGGGLVQAGGSLRLAVLPPDLPSTLNDMGWYRQAPGKERELVAAITRGGSTNYADSVKGRFTISRDNAKNTVYLEMNSLKPEDTAVYYCAAPYAGWRDGGDYWGQGTQVTVSS	low polyreactivity
QGQLVESGGGLVQAGGSLRLSCAASGRTFYLNAMGWYRQAPGKERELVAAINRGTRTYYADSVKGRFTISRDNAKNTVFLQMNSLKPDETAVYYCASVPRYYYSSSYTMDYWGQGTQVTVSS	high polyreactivity
